Measurements as given in US10047131B2, “Peptides and combination of peptides for use in immunotherapy against ovarian cancer and other cancers” (immatics biotechnologies GmbH, priority 2015, dated 2018).

target: HLA-A*02:01 (Homo sapiens, UniProt P04439, D140Y/D185E/D98H/E176V/E277Q/G131W/G231S/I119V/I121R/I166T/I218V/L300P/L318F/N151K/N90K/P208A/P217A/Q86G/Q94H/R138H/R169H/T345S); assay: MHC binding assay (UV-ligand exchange, ELISA of exchange yield); conditions: binding to HLA-A*02:01, UV-ligand exchange
Outline: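 Peptide–MHC complexes made by UV-ligand exchange, where a UV-cleavable peptide is replaced by the test peptide. Exchange yield measured by ELISA: complexes diluted 100-fold on streptavidin-coated plates, stabilized complexes detected with HRP anti-β2m, TMB read at 450 nm.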

Substance	Peptide exchange (MHC class I binding score, peptide exchange yield)
198 (KTINKVPTV; listed as Homo sapiens) [compound 198]	“+++” (≥50 = +++)
612 (YLYNEGLSV; listed as Homo sapiens) [compound 612]	“+++” (≥50 = +++)
386 (ILFRYPLTI; listed as Homo sapiens) [compound 386]	“+++” (≥50 = +++)
160 (FLFDEEIEQI; listed as Homo sapiens) [compound 160]	“+++” (≥50 = +++)
569 (KLVDRTWTL; listed as Homo sapiens) [compound 569]	“+++” (≥50 = +++)
35 (KINDTIYEV; listed as Homo sapiens) [compound 35]	“+++” (≥50 = +++)
102 (YLFESEGLVL; listed as Homo sapiens) [compound 102]	“+++” (≥50 = +++)
84 (VTFGEKLLGV; listed as Homo sapiens) [compound 84]	“++” (≥20% = ++)
473 (AMATESILHFA; listed as Homo sapiens) [compound 473]	“+++” (≥50 = +++)
78 (SLFSSLEPQIQPV; listed as Homo sapiens) [compound 78]	“+++” (≥50 = +++)
266 (KITDTLIHL; listed as Homo sapiens) [compound 266]	“+++” (≥50 = +++)
485 (NVPDSFNEV; listed as Homo sapiens) [compound 485]	“+++” (≥50 = +++)
507 (KLIDDQDISISL; listed as Homo sapiens) [compound 507]	“+++” (≥50 = +++)
345 (VIWKALIHL; listed as Homo sapiens) [compound 345]	“+++” (≥50 = +++)
283 (ALYIGDGYVIHLA; listed as Homo sapiens) [compound 283]	“+++” (≥50 = +++)
151 (KILQQLVTL; listed as Homo sapiens) [compound 151]	“+++” (≥50 = +++)
201 (RLVDYLEGI; listed as Homo sapiens) [compound 201]	“+++” (≥50 = +++)
226 (MLYVVPIYL; listed as Homo sapiens) [compound 226]	“++” (≥20% = ++)
98 (LIIDQADIYL; listed as Homo sapiens) [compound 98]	“+++” (≥50 = +++)
541 (SMLEPVPEL; listed as Homo sapiens) [compound 541]	“+++” (≥50 = +++)
232 (ALLEAQDVELYL; listed as Homo sapiens) [compound 232]	“++” (≥20% = ++)
305 (SIANFSEFYV; listed as Homo sapiens) [compound 305]	“++++” (≥75% = ++++)
399 (YLFEPLYHV; listed as Homo sapiens) [compound 399]	“+++” (≥50 = +++)

Substance	Peptide exchange (MHC class I binding score, peptide exchange yield)
382 (ALQNYIKEA; listed as Homo sapiens) [compound 382]	“++” (≥20% = ++)
245 (SMIDDLLGV; listed as Homo sapiens) [compound 245]	“+++” (≥50 = +++)
464 (ALNDCIYSV; listed as Homo sapiens) [compound 464]	“+++” (≥50 = +++)
597 (KLLEGQVIQL; listed as Homo sapiens) [compound 597]	“+++” (≥50 = +++)
247 (VLLPNDLLEKV; listed as Homo sapiens) [compound 247]	“+++” (≥50 = +++)
525 (VLLEAGEGLVTI; listed as Homo sapiens) [compound 525]	“+++” (≥50 = +++)
13 (YLMDESLNL; listed as Homo sapiens) [compound 13]	“+++” (≥50 = +++)
183 (FGLDLVTEL; listed as Homo sapiens) [compound 183]	“+++” (≥50 = +++)
620 (KLLNKIYEA; listed as Homo sapiens) [compound 620]	“++++” (≥75% = ++++)
349 (SLTEYLQNV; listed as Homo sapiens) [compound 349]	“++++” (≥75% = ++++)
22 (IMEENPGIFAV; listed as Homo sapiens) [compound 22]	“+++” (≥50 = +++)
361 (ALYELEGTTV; listed as Homo sapiens) [compound 361]	“+++” (≥50 = +++)
436 (HLAEVSAEV; listed as Homo sapiens) [compound 436]	“+++” (≥50 = +++)
302 (ALLQEGEVYSA; listed as Homo sapiens) [compound 302]	“+++” (≥50 = +++)
491 (GLNDRSDAV; listed as Homo sapiens) [compound 491]	“++” (≥20% = ++)
116 (YHIDEEVGF; listed as Homo sapiens) [compound 116]	“+” (≥10% = +)
609 (ALWKQLLEL; listed as Homo sapiens) [compound 609]	“+++” (≥50 = +++)
142 (FLFATPVFI; listed as Homo sapiens) [compound 142]	“+++” (≥50 = +++)
163 (ALDEMGDLLQL; listed as Homo sapiens) [compound 163]	“+++” (≥50 = +++)
384 (ILFANPNIFV; listed as Homo sapiens) [compound 384]	“+++” (≥50 = +++)
206 (VLQEGKLQKLAQL; listed as Homo sapiens) [compound 206]	“+++” (≥50 = +++)
282 (LLADVVPTT; listed as Homo sapiens) [compound 282]	“+++” (≥50 = +++)
161 (ALLEGVNTV; listed as Homo sapiens) [compound 161]	“+++” (≥50 = +++)

Substance	Peptide exchange (MHC class I binding score, peptide exchange yield)
605 (KLYEAVPQL; listed as Homo sapiens) [compound 605]	“+++” (≥50 = +++)
150 (RLWEEGEELEL; listed as Homo sapiens) [compound 150]	“+++” (≥50 = +++)
36 (YVLEDLEVTV; listed as Homo sapiens) [compound 36]	“++” (≥20% = ++)
576 (ILLNNSGQIKL; listed as Homo sapiens) [compound 576]	“++++” (≥75% = ++++)
355 (SIQQSIERLLV; listed as Homo sapiens) [compound 355]	“++” (≥20% = ++)
224 (TLIDAQWVL; listed as Homo sapiens) [compound 224]	“+++” (≥50 = +++)
603 (FLIEPEHVNTV; listed as Homo sapiens) [compound 603]	“++” (≥20% = ++)
172 (VLYSYTIITV; listed as Homo sapiens) [compound 172]	“++” (≥20% = ++)
186 (TLFFQQNAL; listed as Homo sapiens) [compound 186]	“++” (≥20% = ++)
469 (YLASDEITTV; listed as Homo sapiens) [compound 469]	“+++” (≥50 = +++)
25 (FLPDEPYIKV; listed as Homo sapiens) [compound 25]	“+++” (≥50 = +++)
448 (NLLETKLQL; listed as Homo sapiens) [compound 448]	“+++” (≥50 = +++)
89 (YILPTETIYV; listed as Homo sapiens) [compound 89]	“++++” (≥75% = ++++)
79 (SLFIGEKAVLL; listed as Homo sapiens) [compound 79]	“+++” (≥50 = +++)
289 (VLLEIEDLQV; listed as Homo sapiens) [compound 289]	“++++” (≥75% = ++++)
544 (LLWDVPAPSL; listed as Homo sapiens) [compound 544]	“+++” (≥50 = +++)
380 (TLIEDEIATI; listed as Homo sapiens) [compound 380]	“++” (≥20% = ++)
484 (SLIEKVTQL; listed as Homo sapiens) [compound 484]	“+++” (≥50 = +++)
440 (ALADGVTMQV; listed as Homo sapiens) [compound 440]	“++” (≥20% = ++)
88 (FLLVGDLMAV; listed as Homo sapiens) [compound 88]	“+++” (≥50 = +++)
39 (SVAPNLPAV; listed as Homo sapiens) [compound 39]	“+++” (≥50 = +++)
